Measurements taken from publication PMC10761851, “Asymmetric α-benzylation of cyclic ketones enabled by concurrent chemical aldol condensation and biocatalytic reduction” (Nature Communications, 2024).
Numbering of substitutions follows the chain as printed. Names and notes keep the numbering of the source.

B1: YqjM (Bacillus subtilis subsp. subtilis str. 168) (protein)
chain: ARKLFTPITIKDMTLKNRIVMSPMCMYSSHEKDGKLTPFHMAHYISRAIGQVGLIIVEASAVNPQGRITDQDLGIWSDEHIEGFAKLTEQVKEQGSKIGIQLAHAGRKAELEGDIFAPSAIAFDEQSATPVEMSAEKVKETVQEFKQAAARAKEAGFDVIEIHAAHGYLIHEFLSPLSNHRTDEYGGSPENRYRFLREIIDEVKQVWDGPLFVRVSASDYTDKGLDIADHIGFAKWMKEQGVDLIDCSSGALVHADINVFPGYQVSFAEKIREQADMATGAVGMITDGSMAEEILQNGRADLIFIGRELLRDPFFARTAAKQLNTEIPAPVQYERGW
notes: ene-reductase, FMN enzyme
B2: YqjM (Bacillus subtilis subsp. subtilis str. 168; I69Y) (protein)
chain: B1 chain with I68Y
notes: ene-reductase, FMN enzyme
B3: YqjM (Bacillus subtilis subsp. subtilis str. 168; C26G/I69Y) (protein)
chain: B1 chain with C25G, I68Y
notes: ene-reductase, FMN enzyme
B4: YqjM (Bacillus subtilis subsp. subtilis str. 168; C26A/I69Y) (protein)
chain: B1 chain with C25A, I68Y
notes: ene-reductase, FMN enzyme
B5: YqjM (Bacillus subtilis subsp. subtilis str. 168; I69G) (protein)
chain: B1 chain with I68G
notes: ene-reductase, FMN enzyme
B6: YqjM (Bacillus subtilis subsp. subtilis str. 168; C26G/I69Y/Y169F) (protein)
chain: B1 chain with C25G, I68Y, Y168F
notes: ene-reductase, FMN enzyme
B7: YqjM (Bacillus subtilis subsp. subtilis str. 168; C26G/I69Y/Y28F) (protein)
chain: B1 chain with C25G, Y27F, I68Y
notes: ene-reductase, FMN enzyme

substrate: O=C1CCCC/C1=C\c1ccccc1; assay: purified protein; assay type: biochemical, Bacillus subtilis; settings: 1.0 mM NADPH, 10 μM enzyme, PBS 100 mM, pH 7.5, 30 °C

Row | Protein | Km | kcat | kcat/Km
1 | B1 | 7.98 ± 0.18 mM | 0.19 ± 0.009 s⁻¹ | 20 M⁻¹ s⁻¹
2 | B2 | 4.56 ± 0.12 mM | 0.87 ± 0.012 s⁻¹ | 190 M⁻¹ s⁻¹
3 | B3 | 1.1 ± 0.03 mM | 1.86 ± 0.05 s⁻¹ | 1690 M⁻¹ s⁻¹
4 | B4 | 2.98 ± 0.1 mM | 1.12 ± 0.02 s⁻¹ | 380 M⁻¹ s⁻¹
5 | B5 | 3.48 ± 0.11 mM | 0.43 ± 0.01 s⁻¹ | 120 M⁻¹ s⁻¹

substrate: O=C1CCC/C1=C\c1ccccc1; assay: purified protein; assay type: biochemical, Bacillus subtilis; settings: 1.0 mM NADPH, 10 μM enzyme, PBS 100 mM, pH 7.5, 30 °C

Row | Protein | Km | kcat | kcat/Km
6 | B1 | 8.35 ± 0.2 mM | 0.23 ± 0.005 s⁻¹ | 30 M⁻¹ s⁻¹
7 | B2 | 4.25 ± 0.09 mM | 0.65 ± 0.015 s⁻¹ | 150 M⁻¹ s⁻¹
8 | B6 | 1.69 ± 0.01 mM | 0.56 ± 0.009 s⁻¹ | 330 M⁻¹ s⁻¹
9 | B3 | 1.21 ± 0.01 mM | 1.59 ± 0.03 s⁻¹ | 1310 M⁻¹ s⁻¹
10 | B4 | 2.65 ± 0.02 mM | 0.89 ± 0.023 s⁻¹ | 340 M⁻¹ s⁻¹
11 | B7 | 2.21 ± 0.02 mM | 0.49 ± 0.012 s⁻¹ | 220 M⁻¹ s⁻¹
12 | B5 | 3.56 ± 0.08 mM | 0.39 ± 0.012 s⁻¹ | 110 M⁻¹ s⁻¹
